Data reported in patent US20200199241A1 (Chugai, published 2020).
Where a chain is given by its changes, count along the chain named.

B1: IgG1-F644 (antibody)
heavy: QVQLQESGPGLVKPSETLSLTCAVSGHSISHDHAWSWVRQPPGEGLEWIGFISYSGITNYNPSLQGRVTISRDNSKNTLYLQMNSLRAEDTAVYYCARSLARTTAMDYWGEGTLVTVSSASTKGPSVFPLAPSSKSTSGGTAALGCLVKDYFPEPVTVSWNSGALTSGVHTFPAVLQSSGLYSLSSVVTVPSSSLGTQTYICNVNHKPSNTKVDKKVEPKSCDKTHTCPPCPAPELLRGPKVFLFPPKPKDTLYISRTPEVTCVVVDVSHEDPEVKFNWYVDGVEVHNAKTKPREEQYNSTYRVVSVLTPLHQDWLNGKEYKCKVSNKALPAPIEKTISKAKGQPREPQVYTLPPSRDELTKNQVSLTCLVKGFYPSDIAVEWESNGQPENNYKTTPPVLDSDGSFFLYSKLTVDKSRWQQGNVFSCSVMHEALHYHYTQKSLSLSP
light: not shown
notes: EU numbering; copies: 2 + 2
B2: IgG1-F685 (antibody)
heavy: B1 heavy with R238G, K241S, K290G
light: not shown
notes: EU numbering; copies: 2 + 2
B3: IgG1-F678 (antibody)
heavy: B1 heavy with R238G, K241S, N288V
light: not shown
notes: EU numbering; copies: 2 + 2
B4: IgG1-F652 (antibody)
heavy: B1 heavy with R238G, P240D, K241S, P310V
light: not shown
notes: copies: 2 + 2
B5: IgG1-F656 (antibody)
heavy: B1 heavy with R238G, G239K
light: not shown
notes: EU numbering; copies: 2 + 2
B6: IgG1-F667 (antibody)
heavy: B1 heavy with R238G, K241S, N288G
light: not shown
notes: EU numbering; copies: 2 + 2
B7: IgG1-F681 (antibody)
heavy: B1 heavy with R238G, K241S, K290A
light: not shown
notes: EU numbering; copies: 2 + 2
B8: IgG1-F660 (antibody)
heavy: B1 heavy with R238G, P331K
light: not shown
notes: EU numbering; copies: 2 + 2
B9: IgG1-F658 (antibody)
heavy: B1 heavy with R238G, P240K
light: not shown
notes: EU numbering; copies: 2 + 2
B10: IgG1-F666 (antibody)
heavy: B1 heavy with R238G, K241S, N288F
light: not shown
notes: EU numbering; copies: 2 + 2
B11: IgG1-F651 (antibody)
heavy: B1 heavy with R238G, P310V, Q313A
light: not shown
notes: EU numbering; copies: 2 + 2
B12: IgG1-F682 (antibody)
heavy: B1 heavy with R238G, K241S, K290D
light: not shown
notes: EU numbering; copies: 2 + 2
B13: IgG1-F665 (antibody)
heavy: B1 heavy with R238G, K241S, N288D
light: not shown
notes: EU numbering; copies: 2 + 2
B14: IgG1-F668 (antibody)
heavy: B1 heavy with R238G, K241S, N288H
light: not shown
notes: EU numbering; copies: 2 + 2
B15: IgG1-F688 (antibody)
heavy: B1 heavy with R238G, K241S, K290L
light: not shown
notes: EU numbering; copies: 2 + 2
B16: IgG1-F657 (antibody)
heavy: B1 heavy with R238G, G239R
light: not shown
notes: EU numbering; copies: 2 + 2
B17: IgG1-F669 (antibody)
heavy: B1 heavy with R238G, K241S, N288I
light: not shown
notes: EU numbering; copies: 2 + 2
B18: IgG1-F686 (antibody)
heavy: B1 heavy with R238G, K241S, K290H
light: not shown
notes: EU numbering; copies: 2 + 2
B19: IgG1-F671 (antibody)
heavy: B1 heavy with R238G, K241S, N288L
light: not shown
notes: EU numbering; copies: 2 + 2
B20: IgG1-F672 (antibody)
heavy: B1 heavy with R238G, K241S, N288M
light: not shown
notes: EU numbering; copies: 2 + 2
B21: IgG1-F663 (antibody)
heavy: B1 heavy with R238G, N288E, T309Q, Q313A
light: not shown
notes: EU numbering; copies: 2 + 2
B22: IgG1-F673 (antibody)
heavy: B1 heavy with R238G, K241S, N288P
light: not shown
notes: EU numbering; copies: 2 + 2
B23: IgG1-F683 (antibody)
heavy: B1 heavy with R238G, K241S, K290E
light: not shown
notes: EU numbering; copies: 2 + 2
B24: IgG1-F687 (antibody)
heavy: B1 heavy with R238G, K241S, K290I
light: not shown
notes: EU numbering; copies: 2 + 2
B25: IgG1-F679 (antibody)
heavy: B1 heavy with R238G, K241S, N288W
light: not shown
notes: EU numbering; copies: 2 + 2
B26: IgG1-F646 (antibody)
heavy: B1 heavy with R238G, N299A
light: not shown
notes: EU numbering; copies: 2 + 2
B27: IgG1-F661 (antibody)
heavy: B1 heavy with R238G, P331R
light: not shown
notes: EU numbering; copies: 2 + 2
B28: IgG1-F670 (antibody)
heavy: B1 heavy with R238G, K241S, N288K
light: not shown
notes: EU numbering; copies: 2 + 2
B29: IgG1-F675 (antibody)
heavy: B1 heavy with R238G, K241S, N288R
light: not shown
notes: EU numbering; copies: 2 + 2
B30: IgG1-F684 (antibody)
heavy: B1 heavy with R238G, K241S, K290F
light: not shown
notes: EU numbering; copies: 2 + 2
B31: IgG1-F680 (antibody)
heavy: B1 heavy with R238G, K241S, N288Y
light: not shown
notes: EU numbering; copies: 2 + 2
B32: IgG1-F645 (antibody)
heavy: B1 heavy with R238G, L330R
light: not shown
notes: EU numbering; copies: 2 + 2
B33: IgG1-F674 (antibody)
heavy: B1 heavy with R238G, K241S, N288Q
light: not shown
notes: EU numbering; copies: 2 + 2
B34: IgG1-F664 (antibody)
heavy: B1 heavy with R238G, K241S, N288A
light: not shown
notes: EU numbering; copies: 2 + 2
B35: IgG1-F654 (antibody)
heavy: B1 heavy with L237K, R238G
light: not shown
notes: EU numbering; copies: 2 + 2
B36: IgG1-F650 (antibody)
heavy: B1 heavy with R238G, T258E, P310V
light: not shown
notes: EU numbering; copies: 2 + 2
B37: IgG1-F676 (antibody)
heavy: B1 heavy with R238G, K241S, N288S
light: not shown
notes: EU numbering; copies: 2 + 2
B38: IgG1-F677 (antibody)
heavy: B1 heavy with R238G, K241S, N288T
light: not shown
notes: EU numbering; copies: 2 + 2
B39: IgG1-F655 (antibody)
heavy: B1 heavy with L237R, R238G
light: not shown
notes: EU numbering; copies: 2 + 2
B40: IgG1-F649 (antibody)
heavy: B1 heavy with R238G, N288E, P310V
light: not shown
notes: EU numbering; copies: 2 + 2
B41: IgG1-F659 (antibody)
heavy: B1 heavy with R238G, P240R
light: not shown
notes: EU numbering; copies: 2 + 2
B42: IgG1-F647 (antibody)
heavy: B1 heavy with R238G, P240D, K241S
light: not shown
notes: EU numbering; copies: 2 + 2

The binders below were run against T1, human FcRn (soluble human FcRn complexed with β2-microglobulin) (human, UniProt P61769 21-119, limits assumed) (assay: SPR, pH 7.0;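 note: antibodies captured on a Protein L sensor chip with human FcRn injected as analyte, KD calculated from fitted association and dissociation rate constants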).
T1 construct: also called hFcRn
T1 sequence (chain, as listed by the source limits assumed, chain 1 of 2): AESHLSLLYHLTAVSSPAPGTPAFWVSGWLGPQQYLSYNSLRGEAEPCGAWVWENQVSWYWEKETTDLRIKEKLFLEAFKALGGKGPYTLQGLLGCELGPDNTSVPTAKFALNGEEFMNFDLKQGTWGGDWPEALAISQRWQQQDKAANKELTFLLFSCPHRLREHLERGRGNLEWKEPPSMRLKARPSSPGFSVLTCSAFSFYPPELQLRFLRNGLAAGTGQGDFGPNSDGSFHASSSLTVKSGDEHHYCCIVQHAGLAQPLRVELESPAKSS
T1 sequence (P61769 21-119 limits assumed, chain 2 of 2): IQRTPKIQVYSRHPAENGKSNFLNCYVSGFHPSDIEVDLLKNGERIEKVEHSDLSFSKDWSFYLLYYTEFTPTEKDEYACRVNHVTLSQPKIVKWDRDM

Binder	Kd [nM]
B1	30
B2	53
B3	33
B4	240
B5	33
B6	30
B7	49
B8	31
B9	32
B10	21
B11	180
B12	82
B13	20
B14	40
B15	28
B16	32
B17	35
B18	46
B19	22
B20	24
B21	6.4

Binder	Kd [nM]
B22	23
B23	50
B24	49
B25	17
B26	38
B27	34
B28	210
B29	51
B30	51
B31	15
B32	33
B33	32
B34	39
B35	32
B36	170
B37	32
B38	47
B39	34
B40	120
B41	30
B42	29
